From patent US6713276B2, “Modulation of Aβ levels by β-secretase BACE2” (Scios, Inc., priority 2000, dated 2004)

How the values were obtained:
[1] = system: APP751sw; experiment: cell-free β-secretase assay, β-NTF ELISA, APP751sw substrate; type: biochemical, human; conditions: membrane extracts of transfected HEK293 cells, pH 4.5, 37° C.
Description: The β-secretase assay consists of two different parts, an incubation or reaction phase to generate β-NTF and an ELISA part to capture and measure the β-NTF generated by β-secretase. The β-secretase ELISA was performed as follows. Each well of a 96 well plate containing a flat bottom (high protein binding, Corning, N.Y.) was coated with 100 μl of the monoclonal capture antibody 8E5 (at ˜8-10 μg/ml) (Johnson-Wood et al. Proc. Natl. Acad. Sci. USA 94: 1550-1555 [1997]). The plate was then covered with parafilm and incubated overnight at 4° C. or alternatively for 2 hours at 37° C. […]
One hundred μl of a 1:5000 dilution of a goat anti rabbit IgG-HRP in Antibody-Conjugate Buffer was then added to each well, and the plate incubated at room temperature for one hour. […] After sufficient blue color had developed, the reactions were stopped by adding 100 μl of 5N H2SO4 to each well, and the amount of βNTF was determined by reading the plate at 450 nm in a Softmax spectrophotometer.
Equal amounts of membrane extracts from either mock, BACE or BACE2 transfected HEK293 cells were incubated with partially purified full length APP751 sw or APP751wt for the indicated times. The formation of β-NTF was then determined using the respective β-NTF specific ELISA as described in General Methodology.

[2] = system: APP751sw processing in HEK293T cells; experiment: co-transfection with APP751sw in HEK293T cells, ELISA of conditioned medium; type: cell-based, human
Description: Expression vectors containing BACE and BACE2 cDNAs were transfected into HEK293T cells in the presence of APP751sw or CT100 (Shoji et al., Science 258: 126-129 [1992]; Lichtenthaler et al., Proc. Natl. Acad. Sci. USA 96: 3053-3058 [1999]). Transfections were performed in 24 well plates using Lipofectamine Plus (Gibco/BRL, Bethesda, Md.) and DNA concentrations were kept constant by including non-specific DNA. Expression plasmids were tested for BACE and BACE2 expression by Western blotting. Cell culture supernatants were collected 48 hours and 72 hours post-transfection, and assayed for α-NTF, β-NTF and Aβ formation. β-NTF measurement was performed as described below. α-NTF was captured like β-NTF but was detected with biotinylated 2H3 (Johnson-Wood et al., Proc. Nati. Acad. Sci. USA 94: 1550-1555 [1997]). Aβ levels were determined by an ELISA using monoclonal antibodies 266 for capture and biotinylated 3D6 for detection (see Johnson-Wood et al., [1997] ibid for antibody epitope description). Aβ42, in contrast, was captured using 21F 12 and detected with biotinylated 3D6. Cell extracts prepared 72 hour post-transfection were separated by SDS-PAGE (Novex) and probed with CT695 (Zymed) for APP and CTFs as well as with an Aβ specific monoclonal antibody WO2 (kindly provided by K. Beyreuther; Ida et al., J. Biol. Chem. 271: 22908-22914 [1996]). Alternatively, co-transfection experiments using APP751sw and BACE or BACE2 were performed in the human neuroblastoma cell line, SK-N-MC, available from the American Type Culture Collection (ATCC).
Given the ability of BACE2 to cleave APP at the β-secretase site in vitro, we investigated the role of BACE2 in HEK293T cells relative to BACE. Variable amounts of BACE2 or BACE expression plasmids were co-transfected with constant amount of DNA encoding APP751sw substrate cDNA. Cell supernatants were collected 48 hours or 72 hours post-transfection and analyzed for α-NTF, β-NTF, total Aβ and Aβ42 as described in Genenral Methodology. Expression of APP751 sw alone led to a significant increase in β-NTF, α-NTF, total Aβ and Aβ42 (FIGS. 2a-d) compared to mock-transfected cells. […] This was most likely due to the fact that overexpressed APP751sw was in excess and was already very efficiently cleaved by endogenous BACE (compare mock versus APP751 sw alone). BACE effects on Aβ formation have been reported to be variable (Vassar et al., [1999] ibid; Sinha et al,[1999] ibid; Hussain et al., [1999] ibid; Yan et al, [1999] ibid; Lin et al,[2000] ibid) and thus it appears that additional factors such as γ-secretase might become limiting.
In an independent experiment, we addressed whether BACE2 competed with the ability of BACE to cleave APP at the β-secretase site. HEK293T cells were co-transfected with constant amounts of APP751sw and BACE, and increasing levels of BACE2. β-NTF and Aβ levels were then measured in culture supernatant (FIG. 3). […] BACE and BACE2 appeared to compete for the substrate and thus the effect on β-NTF might rather be steric. In particular, if BACE2 is a less efficient β-secretase in competing with BACE for substrate, it would reduce the overall β-secretase cleavage efficiency (see also FIG. 4). However, this reduction is insufficient to account for the Aβ reduction with BACE2.

Molecule | β-NTF formation (β-secretase cleavage in vitro) [1] | Aβ42 in conditioned medium ([2]; co-transfected with APP751sw) | total Aβ in conditioned medium ([2]; co-transfected with APP751sw) | α-NTF levels in conditioned medium ([2]; co-transfected with APP751sw) | β-NTF levels in conditioned medium ([2]; co-transfected with APP751sw) | total OD of α-NTF plus β-NTF ([2]; co-transfected with APP751sw, APP751sw alone ~2.59) [OD] | β-NTF formation in the presence of co-transfected BACE ([2]; constant APP751sw and BACE) | Aβ levels in the presence of co-transfected BACE ([2]; constant APP751sw and BACE, increasing BACE2) | Aβ production (total Aβ, Aβ42) with aspartate mutant ([2]; co-transfected with APP751sw or CT100)
BACE2: human aspartyl protease, close homolog of BACE (SEQ ID NO: 2), expressed from pcDNA3.1(−)/BACE2 in transfected cells (protein) MGALARALLLPLLAQWLLRAAPELAPAPFTLPLRVAAATNRVVAPTPGPGTPAERHADGLALALEPALASPAGAANFLAMVDNLQGDSGRGYYLEMLIGTPPQKLQILVDTGSSNFAVAGTPHSYIDTYFDTERSSTYRSKGFDVTVKYTQGSWTGFVGEDLVTIPKGFNTSFLVNIATIFESENFFLPGIKWNGILGLAYATLAKPSSSLETFFDSLVTQANIPNVFSMQMCGAGLPVAGSGTNGGSLVLGGIEPSLYKGDIWYTPIKEEWYYQIEILKLEIGGQSLNLDCREYNADKAIVDSGTTLLRLPQKVFDAVVEAVARASLIPEFSDGFWTGSQLACWTNSETPWSYFPKISIYLRDENSSRSFRITILPQLYIQPMMGAGLNYECYRFGISPSTNALVIGATVMEGFYVIFDRAQKRVGFAASPCAEIAGAAVSEISGPFSTEDVASNCVPAQSLSEPILWIVSYALMSVCGAILLVLIVLLLLPFRCQRRPRDPEVVNDESSLVRHRWK | time-dependent increase in β-NTF formation | striking reduction of total Aβ and Aβ42 to levels found in mock-transfected cells | striking reduction of total Aβ and Aβ42 to levels found in mock-transfected cells | slightly higher levels of α-NTF in conditioned medium from BACE2 versus BACE transfected cells | the effect on β-NTF levels was very similar to that of BACE | ~2.5 | reduced the ability of BACE to form β-NTF in a dose-dependent manner | dramatic dose-dependent reduction in Aβ levels | 
BACE2 D110A: single D110A BACE2 mutant of a critical aspartate residue, made by site-directed mutagenesis (protein) ALEPALASPAGAANFLAMVDNLQGDSGRGYYLEMLIGTPPQKLQILVATGSSNFAVAGTPHSYIDTYFDTERSSTYRSKGFDVTVKYTQGSWTGFVGEDLVTIPKGFNTSFLVNIATIFESENFFLPGIKWNGILGLAYATLAKPSSSLETFFDSLVTQANIPNVFSMQMCGAGLPVAGSGTNGGSLVLGGIEPSLYKGDIWYTPIKEEWYYQIEILKLEIGGQSLNLDCREYNADKAIVDSGTTLLRLPQKVFDAVVEAVARASLIPEFSDGFWTGSQLACWTNSETPWSYFPKISIYLRDENSSRSFRITILPQLYIQPMMGAGLNYECYRFGISPSTNALVIGATVMEGFYVIFDRAQKRVGFAASPCAEIAGAAVSEISGPFSTEDVASNCVPAQSLSEPILWIVSYALMSVCGAILLVLIVLLLLPFRCQRRPRDPEVVNDESSLVRHRWK | lost their ability to cleave at the β-secretase site in vitro |  |  |  |  |  | compete as well if not slightly more effectively with BACE to form β-NTF |  | clearly reversed the suppression of Aβ production
